Experiment: yeast display, Sf9 membrane polyspecificity reagent, FACS + sequencing; frameworks hold sequencing errors
Outline: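 Sorting gates, low and high (top ~1%), were placed on anti-HA fluorescence to track expression and on streptavidin fluorescence to track reagent binding. A clone's polyreactivity label is taken from the gate it came out of. The reagent was 10% biotinylated, detergent-solubilized Sf9 membrane, applied for 1 hour at 4 °C to galactose-induced yeast display cells.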

| Sequence | polyreactivity (PSR sort gate) |
| --- | --- |
| QVQLVESGGGLVQAGGSLRLSCAASGRTFTTYAMGWYRQAPGKARELVAAISDTGGITYYADSVKGRFTISRDNAKNTVYLQMISLKPEDTAVYYCNAESYGGDYDYWGQGTQVTVSS | low polyreactivity |
| QVQLVESGGGLVQAGGSLRLSCAASGRTFTVNAIGWYRQAPGKERELVAAISGRSGRTSYADSVKGRFTISRDNAKNTVYLQMNSLKPEDTAVYYCNASGGYSTGSRYDYWGQGTQVTVSS | high polyreactivity |
| QVQLVESGGGLVQAGGSLRLSCAASGRTFTVYAMGWYRQAPGKERELVAAINYSGGRTYYADSVKGRFTISRDNAKNTVYLQMNSLKPEDTAVYYCAAYVYQSSPRYSRYGGYDYWGQGTQVTVSS | low polyreactivity |
| QVQLVESGGGLVQAGGSLRLSCAASGRTFTWNVMGWYRQAPGKERELVAAITTDDRTYADSVKGRFTISRDNAKNTVYLQMNSLKPEDTAVYYCATVVAWSSRPVGEDYWGQGTQVTVSS | low polyreactivity |
| QVQLVESGGGLVQAGGSLRLSCAASGRTFTYNVMGWYRQAPGKERELVAAISSGGGTISADSVKGRFTISRDNAKHTVYLQMNSLKPEDTAVYYCAAKYAWRLLEMYYWGQGTQVTVSS | low polyreactivity |
| QVQLVESGGGLVQAGGSLRLSCAASGRTFTYYAMGWYIQAPGKERELVAAITSGGRTYYADSVKGRFTISRDNAKNHVYLQMNSLKPEDTAVYYCAARRIRDYYRSYDYWGQGTQVTVSS | high polyreactivity |
| QVQLVESGGGLVQAGGSLRLSCAASGRTFTYYAMGWYRQAPGKERELVAAIRWTGDSTYYADSVKGRFTISRDNAKNTVYLQMNSLKPEDTAVYYCAKQARWQYDGGIRWYYYWGQGTQVTVSS | high polyreactivity |
| QVQLVESGGGLVQAGGSLRLSCAASGRTFTYYAMGWYRQAPGKVRELVAAITFRGGRTYYADSVKGRFTFSRDNPKNTVYLQMNSLKPEDTAVYYCAAVPLWSYGGNYWGQGTQVTVSS | high polyreactivity |
| QVQLVESGGGLVQAGGSLRLSCAASGRTFVANRMGWYRQAPGKERELVAAINDGDDTYYADSVKGRFTISRDNAKNTVYLQMNSLKPEDTAVYYCAADIIYGYEVYTYTSDYWGQGTQVTVSS | low polyreactivity |
| QVQLVESGGGLVQAGGSLRLSCAASGRTFVEYAMGWYRQAPGKERELVADITISGGRTYYADSVKGRFTISRDNAKNTVYLQMNSLKPEDTAVYYCNAQSYLGVTHRGYIKNGYDYWGQGTQVTVSS | low polyreactivity |
| QVQLVESGGGLVQAGGSLRLSCAASGRTFVGNALGGYIQAPGKERELVAAISSGGSTYYADSVKGRFTISRDNAKITVYLQMNSLNPEDTAVYYCAGLYRRGAHGDYWGQGTQVTVSS | low polyreactivity |
| QVQLVESGGGLVQAGGSLRLSCAASGRTFVGNSMGWYRQAPGKERELVADITWSGDITYYADSVKGRFTISRDNAKNTVYLQMNSLKPEDTAVYYCAADYHRRRTDYDYWGQGTQVTVSS | low polyreactivity |
| QVQLVESGGGLVQAGGSLRLSCAASGRTFVGYAIGWSRPATGKERELVAAISRTGGSTYYADSVKGRFTISRDNAKNTVYLQMNSLKPEDTAVYYCNAVTLSSTYGGHDYWGQGTQVTVSS | high polyreactivity |
| QVQLVESGGGLVQAGGSLRLSCAASGRTFVGYAMGWDRQAPGKERELVATITSSGRTNYADSVKGRCTISRDNAKNTVYLQMNSLKPEDTAVYYCNKQRTRWYDYWGQGTQVTVSS | high polyreactivity |
| QVQLVESGGGLVQAGGSLRLSCAASGRTFVGYAMGWYRQAPGKEREFVADITYDSGSTYYADSVKGRFTISRDNAKNTVYLQMNSLKPEETAVYYCAAPDYWAYTRSMDYWGQGTQVTVSS | high polyreactivity |
| QVQLVESGGGLVQAGGSLRLSCAASGRTFVGYVMGWYRQAPGKERDLVAAITSRGGRTYYADSLKGRFTISRDNAKNTVYLQMNSLNPEDTGVYYCYAAHGSRAFFGGYDYWGQGTEVTVSS | high polyreactivity |
| QVQLVESGGGLVQAGGSLRLSCAASGRTFVHYTMGWYRQTPGKDRELVAAISGTGTSTYYADSVKGRFTISRDNAKNTVYLQMNSLKPEDTAVYYCARDPYFGFHIGYPRRDYWGQGTQVTVSS | low polyreactivity |
| QVQLVESGGGLVQAGGSLRLSCAASGRTFVIYAMGWYRQAPGKQRELVAAISKSGGRTYYADSVKGRFTISRDNAKNSVYLQMNSLKPEDTAVYYCNKVLSVSQAGGFDYWGQGTQVTVSS | high polyreactivity |
| QVQLVESGGGLVQAGGSLRLSCAASGRTFVKNAMGWYRQAPGKERELVAISWSTGGTYYADSVKGRFTISRDNAKNTVYLQMNSLKPEDTAVYYCNADWGSVNGYSGYYYWGQGTQVTVSS | low polyreactivity |
| QVQLVESGGGLVQAGGSLRLSCAASGRTFVKYAMGWYRQAPGKERELVAAISWSGGSTYYADSVKGRFTISRDNAKNTVYLQMNSLKPEDTAVYYCNTAQRYRVYRYDYWGQGTQVTVSS | high polyreactivity |
| QVQLVESGGGLVQAGGSLRLSCAASGRTFVNNAMGWYRQAPGKERELVAAISRSGGSTYYADSVKGRFTISRDNAKNTVYLQMNSLKPEDTAVYYCNKASNVRGYEYWGQGTQVTVSS | high polyreactivity |
| QVQLVESGGGLVQAGGSLRLSCAASGRTFVPYAMGWYRQAPGKEREFLAAISWRGGSTYYADSVKGRFTISRDNAKNTVYLQMNSLKPEDTAVYYCAARYKRGFGVRFGYDYWGQGTQVTVSS | high polyreactivity |
| QVQLVESGGGLVQAGGSLRLSCAASGRTFVPYVMGWYRQAPGKERELVAAISSSGGNTYYADSVKGRFTISPDNAKNTVYLQMNSLKPEDTAVYYCAARPRGYVYPGYYYWGQGSQVTVSS | high polyreactivity |
| QVQLVESGGGLVQAGGSLRLSCAASGRTFVRNAKGWYRQAPGKERELVAAITSGGSTYYADSVKGRFTISRDNAKNTVYLQMNSLKPEDTAVYYCAAISTWGTKYDYWGQGTQVTVSS | high polyreactivity |
| QVQLVESGGGLVQAGGSLRLSCAASGRTFVRNAMGWSRQAPGKERELDAAITSGGSTYYADSVKGRFTISRDNAKNTVYLQMNSLKPEDTAVYYCAAVDRRYGPTYKMGYWGQGTQVTVSS | high polyreactivity |
| QVQLVESGGGLVQAGGSLRLSCAASGRTFVRNAMGWYRQAPGKERELVAAISRGGRTNYADSVQGRFTISRDNAKNTVYLKMNSLKPEDTAVYYCATGAGYYFDYDYWGQVTQVTVSS | high polyreactivity |
| QVQLVESGGGLVQAGGSLRLSCAASGRTFVSNAMGWYRQAPGKERELVAAISSSGGSTYYADSVKGRFTISRDNAKNTVYLQMNSLKPEDTAVYYCATYPWYSKYRYDHWGQGTQVTVSS | high polyreactivity |
| QVQLVESGGGLVQAGGSLRLSCAASGRTFVSNSMGWYRQAPGKERELVAAISSSGGSTYYADSVKGRFTISRDNEKNTVYLQMNILKPEETAVYYCANDPWYSKYRYDHWGQGTQVTVSS | high polyreactivity |
| QVQLVESGGGLVQAGGSLRLSCAASGRTFVSYTMVWYRQAPGKERELVAAISSGGSTTYADSVKGRFTISRDNAKNTVYLQKNSLKPEDTAVYYCNARYGWSYWSKYDYWGQGTQVTVSS | high polyreactivity |
| QVQLVESGGGLVQAGGSLRLSCAASGRTFVTNAMGWYRQAPGKERELVAAIRWSSDSTYYADSVKGRFTISRDNAKNTVYLQMNSLKPEDTAVYYCAKQWYVAKISYDYWGQGTQVTVST | high polyreactivity |
